Experimental data: publication PMC5019145 (Molecular microbiology, 2015)
Blank lines part the entries; values can stand above or below the molecule they belong to.

Tests used:
SaFlaH [1] = target: SaFlaH (Sulfolobus acidocaldarius, UniProt Q4J9K9, D122N); experiment: fluorescence titration; type: binding; conditions: 1 µM protein, 5 mM MnCl2, pH 6.2, 25 °C; labelled compound
SaFlaH [2] = target: SaFlaH (Sulfolobus acidocaldarius, UniProt Q4J9K9, K33A); experiment: fluorescence titration; type: binding; conditions: 1 µM protein, 5 mM MnCl2, pH 6.2, 25 °C; labelled compound
Chain of SaFlaH (Sulfolobus acidocaldarius, UniProt Q4J9K9, K33A) (Q4J9K9 whole entry K33A): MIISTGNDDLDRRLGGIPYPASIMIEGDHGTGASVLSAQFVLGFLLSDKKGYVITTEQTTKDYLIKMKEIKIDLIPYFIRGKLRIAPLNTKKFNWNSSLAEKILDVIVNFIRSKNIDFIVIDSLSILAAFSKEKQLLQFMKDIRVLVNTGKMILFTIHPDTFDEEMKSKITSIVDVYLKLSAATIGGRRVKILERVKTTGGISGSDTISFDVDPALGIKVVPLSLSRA

[3] = target: Pyrococcus furiosus FlaH, wild type (PfFlaH) (Pyrococcus furiosus); experiment: MST
[4] = target: T1, StrepII-tagged Sulfolobus acidocaldarius FlaH (StrepII-FlaH) (Sulfolobus acidocaldarius, UniProt Q4J9K9 1-228); experiment: pull-down
T1 sequence: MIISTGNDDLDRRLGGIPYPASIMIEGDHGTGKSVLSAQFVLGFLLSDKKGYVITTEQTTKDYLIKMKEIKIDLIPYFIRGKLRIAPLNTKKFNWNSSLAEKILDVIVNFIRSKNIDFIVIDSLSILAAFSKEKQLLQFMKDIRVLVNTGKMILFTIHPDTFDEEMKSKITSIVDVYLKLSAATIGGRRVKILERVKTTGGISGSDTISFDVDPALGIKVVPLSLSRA

Chain of SaFlaH (Sulfolobus acidocaldarius, UniProt Q4J9K9, D122N) (Q4J9K9 whole entry D122N): as the sequence (Q4J9K9 whole entry K33A) above, with A33K, D122N counted along it

binding result [4]: binds
B1: His6-tagged Sulfolobus acidocaldarius FlaXc (FlaX without its first 37 residues) (domain or fragment, UniProt Q4J9K6 38-250, looked up)
chain: KRVQTQQSPQNISQEQRFPTQQKPANDETSKYSSDSIEKALKDVLGKMDKKENELLTNITNSFNEMKKLIENLNSAVEELALSVKASESDSSSPFNTIIQQEEEHVSREISTVSQLVGSNNPNNVNLTWFIKSCVLLEIMEYDEEKIKQLYELGYVSSDDMFTILRILSFIKNRKITAKELASIAANIAESYSSLTPEIKKYIMILEGGGVNG

binding result [4]: binds
B2: His6-tagged Sulfolobus acidocaldarius FlaXcc1 (FlaXc without the N-terminal domain 38-86) (domain or fragment, UniProt Q4J9K6 87-250, looked up)
chain: KKENELLTNITNSFNEMKKLIENLNSAVEELALSVKASESDSSSPFNTIIQQEEEHVSREISTVSQLVGSNNPNNVNLTWFIKSCVLLEIMEYDEEKIKQLYELGYVSSDDMFTILRILSFIKNRKITAKELASIAANIAESYSSLTPEIKKYIMILEGGGVNG

Continued, molecule first:

Molecule: CNc1ccccc1C(=O)O[C@H]1[C@@H](O)[C@H](n2cnc3c(N)ncnc32)O[C@@H]1COP(=O)(O)OP(=O)(O)OP(=O)(O)O (mixture of isomers) [MANT-ATP, 2’-/3’-O-(N’-methylanthraniloyl) adenosine-5’-O-triphosphate]
fluorescence titration (FRET from tryptophan to MANT) (SaFlaH [1]): SaFlaH^K33A and SaFlaH^D122N only bound MANT-ATP with strongly reduced affinity | fluorescence titration (FRET from tryptophan to MANT) (SaFlaH [2]): SaFlaH^K33A and SaFlaH^D122N only bound MANT-ATP with strongly reduced affinity

Molecule: Pyrococcus furiosus FlaI (PfFlaI) (enzyme)
Kd [3]: 1000 nM
